Measured values taken from US11459578B2, “Carbon fixation systems in plants and algae” (NMC, INC., priority 2014, dated 2022).

B1: hCAVII: human α-carbonic anhydrase isoenzyme VII (protein, UniProt P43166 1-264, looked up)
Carbonic anhydrase 7: MTGHHGWGYGQDDGPSHWHKLYPIAQGDRQSPINIISSQAVYSPSLQPLELSYEACMSLSITNNGHSVQVDFNDSDDRTVVTGGPLEGPYRLKQFHFHWGKKHDVGSEHTVDGKSFPSELHLVHWNAKKYSTFGEAASAPDGLAVVGVFLETGDEHPSMNRLTDALYMVRFKGTKAQFSCFNPKCLLPASRHYWTYPGSLTTPPLSESVTWIVLREPICISERQMGKFRSLLFTSEDDERIHMVNNFRPPQPLKGRVVKASFRA
B2: hCAXV: α-carbonic anhydrase isoenzyme XV (protein, UniProt Q99N23 19-324, looked up)
Carbonic anhydrase 15: VDSSGTWCYDSQDPKCGPAHWKELAPACGGPTQSPINIDLRLVQRDYTLKPFIFQGYDSAPQDPWVLENDGHTVLLRVNSCQQNCPAIRGAGLPSPEYRLLQLHFHWGSPGHQGSEHSLDEKHGSMEMHMVHMNTKYQSMEDARSQPDGFAILAVLLVEEDRDNTNFSAIVSGLKNLSSPGVAVNLTSTFALASLLPSALRLLRYYRYSGSLTTPGCEPAVLWTVFENTVPIGHAQVVQFQAVLQTGPPGLHPRPLTSNFRPQQPLGGRRISASPEASVRSSVSTLPCLHLALVGLGVGLRLWQGP
B3: hCAXII: human α-carbonic anhydrase isoenzyme XII (protein, UniProt O43570 25-354, looked up)
Carbonic anhydrase 12: APVNGSKWTYFGPDGENSWSKKYPSCGGLLQSPIDLHSDILQYDASLTPLEFQGYNLSANKQFLLTNNGHSVKLNLPSDMHIQGLQSRYSATQLHLHWGNPNDPHGSEHTVSGQHFAAELHIVHYNSDLYPDASTASNKSEGLAVLAVLIEMGSFNPSYDKIFSHLQHVKYKGQEAFVPGFNIEELLPERTAEYYRYRGSLTTPPCNPTVLWTVFRNPVQISQEQLLALETALYCTHMDDPSPREMINNFRQVQKFDERLVYTSFSQVQVCTAAGLSLGIILSLALAGILGICIVVVVSIWLFRRKSIKKGDNKGVIYKPATKMETEAHA
B4: hCAVB: human α-carbonic anhydrase isoenzyme VB (protein, UniProt Q9Y2D0 34-317, looked up)
Carbonic anhydrase 5B, …: CSLYTCTYKTRNRALHPLWESVDLVPGGDRQSPINIRWRDSVYDPGLKPLTISYDPATCLHVWNNGYSFLVEFEDSTDKSVIKGGPLEHNYRLKQFHFHWGAIDAWGSEHTVDSKCFPAELHLVHWNAVRFENFEDAALEENGLAVIGVFLKLGKHHKELQKLVDTLPSIKHKDALVEFGSFDPSCLMPTCPDYWTYSGSLTTPPLSESVTWIIKKQPVEVDHDQLEQFRTLLFTSEGEKEKRMVDNFRPLQPLMNRTVRSSFRHDYVLNVQAKPKPATSQATP
B5: HLA3: Chlamydomonas plasma membrane-localized and ATP-dependent bicarbonate transporter, expressed in transgenic plants (protein, listed as Chlamydomonas reinhardtii)
chain: MLPGLGVILLVLPMQYYFGYKIVQIKLQNAKHVALRSAIMQEVLPAIKLVKYYAWEQFFENQISKVRREEIRLNFWNCVMKVINVACVFCVPPMTAFVIFTTYEFQRARLVSSVAFTTLSLFNILRFPLVVLPKALRAVSEANASLQRLEAYLLEEVPSGTAAVKTPKNAPPGAVIENGVFHHPSNPNWHLHVPKFEVKPGQVVAVVGRIAAGKSSLVQAILGNMVKEHGSFNVGGRISYVPQNPWLQNLSLRDNVLFGEQFDENKYTDVIESCALTLDLQILSNGDQSKAGIRGVNFSGGQRQRVNLARCAYADADLVLLDNALSAVDHHTAHHIFDKCIKGLFSDKAVVLVTHQIEFMPRCDNVAIMDEGRCLYFGKWNEEAQHLLGKLLPITHLLHAAGSQEAPPAPKKKAEDKAGPQKSQSLQLTLAPTSIGKPTEKPKDVQKLTAYQAALIYTWYGNLFLVGVCFFFFLAAQCSRQISDFWVRWWVNDEYKKFPVKGEQDSAATTFYCLIYLLLVGLFYIFMIFRGATFLWWVLKSSETIRRKALHNVLNAPMGFFLVTPVGDLLLNFTKDQDIMDENLPDAVHFMGIYGLILLATTITVSVTINFFAAFTGALIIMTLIMLSIYLPAATALKKARAVSGGMLVGLVAEVLEGLGVVQAFNKQEYFIEEAARRTNITNSAVFNAEALNLWLAFWCDFIGACLVGVVSAFAVGMAKDLGGATVGLAFSNIIQMLVFYTWVVRFISESISLFNSVEGMAYLADYVPHDGVFYDQRQKDGVAKQIVLPDGNIVPAASKVQVVVDDAALARWPATGNIRFEDVWMQYRLDAPWALKGVTFKINDGEKVGAVGRTGSGKSTTLLALYRMFELGKGRILVDGVDIATLSLKRLRTGLSIIPQEPVMFTGTVRSNLDPFGEFKDDAILWEVLKKVGLEDQAQHAGGLDGQVDGTGGKAWSLGQMQLVCLARAALRAVPILCLDEATAAMDPHTEAIVQQTIKKVFDDRTTITIAHRLDTIIESDKIIVMEQGSLMEYESPSKLLANRDSMFSKLVDKTGPAAAAALRKMAEDFWSTRSAQGRNQ
B6: hCAIV: human α-carbonic anhydrase isoenzyme IV (protein, UniProt P22748 19-284, looked up)
Carbonic anhydrase 4: AESHWCYEVQAESSNYPCLVPVKWGGNCQKDRQSPINIVTTKAKVDKKLGRFFFSGYDKKQTWTVQNNGHSVMMLLENKASISGGGLPAPYQAKQLHLHWSDLPYKGSEHSLDGEHFAMEMHIVHEKEKGTSRNVKEAQDPEDEIAVLAFLVEAGTQVNEGFQPLVEALSNIPKPEMSTTMAESSLLDLLPKEEKLRHYFRYLGSLTTPTCDEKVVWTVFREPIQLHREQILAFSQKLYYDKEQTVSMKDNVRPLQQLGQRTVIKS
B7: hCAVI: human α-carbonic anhydrase isoenzyme VI (protein, UniProt P23280 18-308, looked up)
Carbonic anhydrase 6: QHVSDWTYSEGALDEAHWPQHYPACGGQRQSPINLQRTKVRYNPSLKGLNMTGYETQAGEFPMVNNGHTVQISLPSTMRMTVADGTVYIAQQMHFHWGGASSEISGSEHTVDGIRHVIEIHIVHYNSKYKSYDIAQDAPDGLAVLAAFVEVKNYPENTYYSNFISHLANIKYPGQRTTLTGLDVQDMLPRNLQHYYTYHGSLTTPPCTENVHWFVLADFVKLSRTQVWKLENSLLDHRNKTIHNDYRRTQPLNHRVVESNFPNQEYTLGSEFQFYLHKIEEILDYLRRALN
B8: hCAXIV: human α-carbonic anhydrase isoenzyme XIV (protein, UniProt Q9ULX7 16-337, looked up)
Carbonic anhydrase 14: ADGGQHWTYEGPHGQDHWPASYPECGNNAQSPIDIQTDSVTFDPDLPALQPHGYDQPGTEPLDLHNNGHTVQLSLPSTLYLGGLPRKYVAAQLHLHWGQKGSPGGSEHQINSEATFAELHIVHYDSDSYDSLSEAAERPQGLAVLGILIEVGETKNIAYEHILSHLHEVRHKDQKTSVPPFNLRELLPKQLGQYFRYNGSLTTPPCYQSVLWTVFYRRSQISMEQLEKLQGTLFSTEEEPSKLLVQNYRALQPLNQRMVFASFIQAGSSYTTGEMLSLGVGILVGCLCLLLAVYFIARKIRKKRLENRKSVVFTSAQATTEA
B9: hCAIII: human α-carbonic anhydrase isoenzyme III (protein, UniProt P07451 2-260, looked up)
Carbonic anhydrase 3: AKEWGYASHNGPDHWHELFPNAKGENQSPVELHTKDIRHDPSLQPWSVSYDGGSAKTILNNGKTCRVVFDDTYDRSMLRGGPLPGPYRLRQFHLHWGSSDDHGSEHTVDGVKYAAELHLVHWNPKYNTFKEALKQRDGIAVIGIFLKIGHENGEFQIFLDALDKIKTKGKEAPFTKFDPSCLFPACRDYWTYQGSFTTPPCEECIVWLLLKEPMTVSSDQMAKLRSLLSSAENEPPVPLVSNWRPPQPINNRVVRASFK
B10: hCAVA: human α-carbonic anhydrase isoenzyme VA (protein, UniProt P35218 39-305, looked up)
Carbonic anhydrase 5A, …: CAWQTSNNTLHPLWTVPVSVPGGTRQSPINIQWRDSVYDPQLKPLRVSYEAASCLYIWNTGYLFQVEFDDATEASGISGGPLENHYRLKQFHFHWGAVNEGGSEHTVDGHAYPAELHLVHWNSVKYQNYKEAVVGENGLAVIGVFLKLGAHHQTLQRLVDILPEIKHKDARAAMRPFDPSTLLPTCWDYWTYAGSLTTPPLTESVTWIIQKEPVEVAPSQLSAFRTLLFSALGEEEKMMVNNYRPLQPLMNRKVWASFQATNEGTRS

What was measured:
α-CAs found in mammals = conditions: inhibitor not named; cited from earlier work
[1] = cited from earlier work
Arabidopsis = assay: Growth phenotypes of transgenic Arabidopsis; assay type: in vivo
Source text: (§1) Previously, reconstitution of a functional inorganic CCM in C3 plants to suppress photorespiration and enhance photosynthesis was proposed. In WO 2012/125737, it was hypothesized that expression of a minimum of three algal CCM proteins would be sufficient to elevate internal plastid CO2 concentrations high enough to suppress photorespiration. These three algal CCM genes included the Chlamydomonas plasma membrane-localized and ATP-dependent bicarbonate transporter, HLA3; the chloroplast envelope localized bicarbonate anion transporter, LCIA; and a chloroplast stromal-localized carbonic anhydrase (HCA-II) to accelerate conversion of bicarbonate into CO2. […] To test this hypothesis, we generated multiple independent transgenic Arabidopsis and Camelina plants expressing each CCM gene as a single gene construct, as well as a stacked 3-gene construct. The expression of each gene was controlled by the light-regulated Cab1 gene promoter.
Finally, we also grew transgenics on ammonium with sucrose which would presumably provide additional ATP via respiration. We hypothesized that growth on nitrate or ammonium with sucrose would provide additional ATP that could potentially drive HLA3 activity.

Camelina = assay: Growth phenotypes and seed recovery of transgenic Camelina; assay type: in vivo
Source text: as §1

Molecule | Ki (α-CAs found in mammals) [µM] | Km [1] [mM] | further results
hCAI: human α-carbonic anhydrase isoenzyme I | 0.25 | 4 | 
hCAXIII: human α-carbonic anhydrase isoenzyme XIII | 0.016 | 13.8 | 
B1 | 0.0025 | 11.4 | 
B2 | 0.072 | 14.2 | 
B3 | 0.0057 | 12 | 
B4 | 0.054 | 9.7 | 
B5 |  |  | growth phenotype relative to WT (Arabidopsis): reduced growth phenotypes; growth in the presence of ammonium (Arabidopsis; ammonium): none of the Arabidopsis HLA3 transgenics (4 independent lines) grew; growth on ammonium with sucrose (Arabidopsis; ammonium plus sucrose): rescued; growth on nitrate (Arabidopsis; nitrate): survived; growth phenotype / viability relative to WT (Camelina): no viable seeds were recovered
B6 | 0.074 | 21.5 | 
B7 | 0.011 | 6.9 | 
B8 | 0.041 | 7.9 | 
B9 | 200 | 33.3 | 
B10 | 0.063 | 10 | 
